Measurements published in US20240279318A1 (NANJING LEGEND BIOTECH, published 2024).
Substitutions are numbered along the chain they refer to.

B1: AS170036 scFv-mIgG2aFc (Fc fusion, not shown: a dimerising Fc or GST)
chain: QLVLTQPSSVSGTPGQTVTISCAGTSSDVGSENYVSWYRQLPGTAPKLLIYQVNKRASGIADRFSGSKSGNTASMTISGLQSADEADYYCASYRSSDHNIVFGGGTHLTVLGGGGSGGGGSGGGGSAVQLVESGGGLVQPGGSLRLSCTASGFTFSSYAMSWVRQAPGKGLEWVSTINSGTGSPYYADSVKGRFTISRDNAKNTLYLQLNSLKTEDTAMYYCAKNFFDGSWFLGPPAMDYWGKGTLVTISS
notes: Camel scFv
B2: AS179723 scFv-mIgG2aFc (Fc fusion, not shown: a dimerising Fc or GST)
chain: QAGLTQPPSMSGSPRQSVTISCTGSSNNIGGNYVNWYQHLPGTAPKLLIYDNKNRPSGVPEQISGSKSGSSASLTITGLQAEDEGDYYCASWDDSLSAVVFGGGTHLTVLGGGGSGGGGSGGGGSEVQLVESGGGLVQPGGSLRLSCAASGFTFLNYAMSWVRQAPGKGLEWVSSNSGAGSTYYSDSVKGRFTISRDYAKNVVYLQLNSLKTEDTGMYYCAKGTNVGSWSSLHYWGQGTQVTVSS
notes: Camel scFv; i647-labelled for flow cytometry
B3: AS179732 scFv-mIgG2aFc (Fc fusion, not shown: a dimerising Fc or GST)
chain: B2 chain with Q1N, A2F, G3M, N27S, K53S, P56A, Q62R, I63F, A98G, V99A
notes: as for B2
B4: AS148691 scFv-mIgG2aFc (Fc fusion, not shown: a dimerising Fc or GST)
chain: DIQMTQSPSSLSASVGDRVTITCRASQSVSSAVAWYQQKPGKAPKLLIYSASSLYSGVPSRFSGSRSGTDFTLTISSLQPEDFATYYCQQYYGAYLITFGQGTKVEIKGGGGSGGGGSGGGGSEVQLVESGGGLVQPGGSLRLSCAASGFNLYYSSIHWVRQAPGKGLEWVASIYSSYGSTSYADSVKGRFTISADTSKNTAYLQMNSLRAEDTAVYYCARVGPGYYGIDYWGQGTLVTVSS
notes: i647-labelled for flow cytometry
B5: AS167830 sdAb-mIgG2aFc (Fc fusion, not shown: a dimerising Fc or GST)
chain: QVKLVESGGGSVQAGGSLRLSCAASRSSEYMNRRFCMGWFRQASGKEREGVAVVYIGGGRTYYADSVKGRFTISQDNAKNTLYLQMNNLKPEDTAMYYCTADVDPYESSWSRDLGYWGQGTQVTVSS
notes: as for B4
B6: AS170036 VL1VH1 scFv-mIgG2aFc (Fc fusion, not shown: a dimerising Fc or GST)
chain: QSALTQPRSVSGSPGQSVTISCAGTSSDVGSENYVSWYQQHPGKAPKLMIYQVNKRASGVPDRFSGSKSGNTASLTISGLQAEDEADYYCASYRSSDHNIVFGGGTKLTVLGGGGSGGGGSGGGGSEVQLVESGGGLVQPGGSLRLSCAASGFTFSSYAMSWVRQAPGKGLEWVSTINSGTGSPYYADSVKGRFTISRDNSKNTLYLQMNSLRAEDTAVYYCAKNFFDGSWFLGPPAMDYWGQGTLVTVSS
notes: Humanized
B7: ET1402L1 scFv fused to a C-terminal mouse IgG2a Fc region (Fc fusion, not shown: a dimerising Fc or GST)
chain: QSVLTQPASVSGSPGQSITISCTGTSSDVGGYNYVSWYQQHPGKAPKLMIYDVNNRPSEVSNRFSGSKSGNTASLTISGLQAEDEADYYCSSYTTGSRAVFGGGTKLTVLGGGGSGGGGSGGGGSEVQLVQSGAEVKKPGESLTISCKASGYSFPNYWITWVRQMSGGGLEWMGRIDPGDSYTTYNPSFQGHVTISIDKSTNTAYLHWNSLKASDTAMYYCARYYVSLVDIWGQGTLVTVSS
notes: also called positive control antibody

The binders below were run against T1, OR6C1 peptide loaded T2 cells (human, UniProt P61769 21-119) (assay: flow cytometry, peptide-loaded T2 cells).
T1 construct: whole, on cells; also called OR6C1/T2
B1: no binding (tested: 30 or 50 nM). B2: no binding (tested: 30 or 50 nM). B3: no binding (tested: 30 or 50 nM). B4: no binding (tested: 30 or 50 nM). B5: no binding (tested: 30 or 50 nM). B6: no binding (tested: 30 or 50 nM).

The binders below were run against T2, PTP4A1 peptide loaded T2 cells (human, UniProt P61769 21-119) (assay: flow cytometry, peptide-loaded T2 cells).
T2 construct: whole, on cells; also called PTP4A1-pulsed T2 cells
B1: no binding (tested: 30 or 50 nM). B2: no binding (tested: 30 or 50 nM). B3: no binding (tested: 30 or 50 nM). B4: no binding (tested: 30 or 50 nM). B5: no binding (tested: 30 or 50 nM). B6: no binding (tested: 30 or 50 nM).

What follows are binders tested against T3, RP1 peptide loaded T2 cells (human, UniProt P61769 21-119) (assay: flow cytometry, peptide-loaded T2 cells).
T3 construct: whole, on cells; also called RP1/T2
B1: no binding (tested: 30 or 50 nM). B2: no binding (tested: 30 or 50 nM). B3: no binding (tested: 30 or 50 nM). B4: no binding (tested: 30 or 50 nM). B5: no binding (tested: 30 or 50 nM). B6: no binding (tested: 30 or 50 nM).

Each binder was assayed against T4, RCL1 peptide loaded T2 cells (human) (assay: flow cytometry, peptide-loaded T2 cells).
T4 construct: whole, on cells; also called RCL1/T2
B1: no binding (tested: 30 or 50 nM). B2: no binding (tested: 30 or 50 nM). B3: no binding (tested: 30 or 50 nM). B4: no binding (tested: 30 or 50 nM). B5: no binding (tested: 30 or 50 nM). B6: no binding (tested: 30 or 50 nM).

What follows are binders tested against T5, ZNF566 peptide loaded T2 cells (human, UniProt P61769 21-119) (assay: flow cytometry, peptide-loaded T2 cells).
T5 construct: whole, on cells; also called ZNF566/T2
B1: no binding (tested: 30 or 50 nM). B2: no binding (tested: 30 or 50 nM). B3: no binding (tested: 30 or 50 nM). B4: no binding (tested: 30 or 50 nM). B5: no binding (tested: 30 or 50 nM). B6: no binding (tested: 30 or 50 nM).

What follows are binders tested against T6, ARNTL peptide loaded T2 cells (human, UniProt P61769 21-119) (assay: flow cytometry, peptide-loaded T2 cells).
T6 construct: whole, on cells; also called ARNTL/T2
B1: no binding (tested: 30 or 50 nM). B2: no binding (tested: 30 or 50 nM). B3: no binding (tested: 30 or 50 nM). B4: no binding (tested: 30 or 50 nM). B5: no binding (tested: 30 or 50 nM). B6: no binding (tested: 30 or 50 nM).

These binders were tested against T7, ATG9A peptide loaded T2 cells (human, UniProt P61769 21-119) (assay: flow cytometry, peptide-loaded T2 cells).
T7 construct: whole, on cells; also called ATG9A/T2
B1: no binding (tested: 30 or 50 nM). B2: no binding (tested: 30 or 50 nM). B3: no binding (tested: 30 or 50 nM). B4: no binding (tested: 30 or 50 nM). B5: no binding (tested: 30 or 50 nM). B6: no binding (tested: 30 or 50 nM).

These binders were tested against T8, BRCA2 peptide loaded T2 cells (human) (assay: flow cytometry, peptide-loaded T2 cells).
T8 construct: whole, on cells; also called BRCA2/T2
B1: no binding (tested: 30 or 50 nM). B2: no binding (tested: 30 or 50 nM). B3: no binding (tested: 30 or 50 nM). B4: no binding (tested: 30 or 50 nM). B5: no binding (tested: 30 or 50 nM). B6: no binding (tested: 30 or 50 nM).

Each binder was assayed against T9, CDC14A peptide loaded T2 cells (human, UniProt P61769 21-119) (assay: flow cytometry, peptide-loaded T2 cells).
T9 construct: whole, on cells; also called CDC14A/T2
B1: no binding (tested: 30 or 50 nM). B2: no binding (tested: 30 or 50 nM). B3: no binding (tested: 30 or 50 nM). B4: no binding (tested: 30 or 50 nM). B5: no binding (tested: 30 or 50 nM). B6: no binding (tested: 30 or 50 nM).

What follows are binders tested against T10, NR2E1 peptide loaded T2 cells (human, UniProt P61769 21-119) (assay: flow cytometry, peptide-loaded T2 cells).
T10 construct: whole, on cells; also called NR2E1/T2
B1: no binding (tested: 30 or 50 nM). B2: no binding (tested: 30 or 50 nM). B3: no binding (tested: 30 or 50 nM). B4: no binding (tested: 30 or 50 nM). B5: no binding (tested: 30 or 50 nM). B6: no binding (tested: 30 or 50 nM).

The binders below were run against T11, OR1I1 peptide loaded T2 cells (human, UniProt P61769 21-119) (assay: flow cytometry, peptide-loaded T2 cells).
T11 construct: whole, on cells; also called OR1I1/T2
B1: no binding (tested: 30 or 50 nM). B2: no binding (tested: 30 or 50 nM). B3: no binding (tested: 30 or 50 nM). B4: no binding (tested: 30 or 50 nM). B5: no binding (tested: 30 or 50 nM). B6: no binding (tested: 30 or 50 nM).

What follows are binders tested against T12, OR51B6 peptide loaded T2 cells (human, UniProt P61769 21-119) (assay: flow cytometry, peptide-loaded T2 cells).
T12 construct: whole, on cells; also called OR51B6/T2
B1: no binding (tested: 30 or 50 nM). B2: no binding (tested: 30 or 50 nM). B3: no binding (tested: 30 or 50 nM). B4: no binding (tested: 30 or 50 nM). B5: no binding (tested: 30 or 50 nM). B6: no binding (tested: 30 or 50 nM).

What follows are binders tested against T2, PTP4A1 peptide loaded T2 cells (assay: flow cytometry, 30 or 50 nM i647-labelled antibody).
Procedure: At the concentration of 30 or 50 nM, binding of 7 antibodies to T2 cells loaded with AFP158, 50 endogenous self-peptides and 12 homologous peptides were carried out using flow cytometry.
B7: binds.

These binders were tested against T13, AFP158/HLA-A*02:01 complex (human) (assay: SPR, antibody captured via mIgG2a-Fc, complex as analyte).
T13 construct: biotinylated on the BSP by BirA for ELISA and panning; also called biotinylated AFP158/HLA-A*02:01 complex; Bio-AFP158
Procedure: (§1) The binding affinity between selected antibodies and AFP158/HLA-A*02:01 complex was determined by surface plasmon resonance (SPR) on a BIAcore T200 instrument (GE Healthcare). The experiment was carried out as follows. The purified sdAb/scFv-mIgG2aFc protein were captured through mIgG2a-Fc onto the sensorchip. […] On-rate (kₐ) and off-rate (kd) were calculated based on association and dissociation curve, and were used to estimate the equilibrium dissociation constant (KD).
B1 gave a Kd of 250 nM, a koff of 0.06 s⁻¹ and a kon of 240000 M⁻¹ s⁻¹. B2 gave a Kd of 39 nM, a koff of 0.0042 s⁻¹ and a kon of 110000 M⁻¹ s⁻¹. Binder B3 has a Kd of 67 nM, a koff of 0.0086 s⁻¹ and a kon of 130000 M⁻¹ s⁻¹. B4 showed a Kd of 71 nM, a koff of 0.005 s⁻¹ and a kon of 71000 M⁻¹ s⁻¹. B5 was tested, and the Kd was 260 nM, the koff was 0.07 s⁻¹ and the kon was 270000 M⁻¹ s⁻¹.

The binders below were run against T13, AFP158/HLA-A*02:01 complex (assay: SPR, scFv-mIgG2aFc from supernatant captured, complex as analyte).
Procedure: as §1
(§2) Humanized heavy chains and light chains were combined, and used to produce a series of humanized antibodies. These antibodies were synthesized as scFv-mIgG2aFc and transiently produced using HEK293 cells. The antibodies in the supernatant were subjected to SPR affinity assessment.
B1 gave a Kd of 450 nM, a koff of 0.19 s⁻¹ and a kon of 430000 M⁻¹ s⁻¹. With B6 the Kd was 360 nM, the koff was 0.062 s⁻¹ and the kon was 170000 M⁻¹ s⁻¹.

Molecular target: T13, AFP158/HLA-A*02:01 complex
Experiment: as above
Remark: another data set of the same source
Procedure: as §1, §2
With B2 the Kd was 28 nM, the koff was 0.0041 s⁻¹ and the kon was 150000 M⁻¹ s⁻¹.

Molecular target: T13, AFP158/HLA-A*02:01 complex
Experiment: as above
Remark: another data set of the same source
Procedure: as §1, §2
Binder B3 has a Kd of 47 nM, a koff of 0.0075 s⁻¹ and a kon of 160000 M⁻¹ s⁻¹.
